{"source": "IntAct's records for PubMed 11801737", "parents": {"B1": {"name": "Protein phosphatase 1 regulatory subunit SDS22 (Saccharomyces cerevisiae), P36047 (parent)", "chain": "MDKNSVNKDSEEKDERHKIEVVDDTNPDFITADSELTQDLPDDVEVIDLVHLKIKSLEDLNLYRFKNLKQLCLRQNLIESISEVEVLPHDKIVDLDFYDNKIKHISSNVNKLTKLTSLDLSFNKIKHIKNLENLTDLENLYFVQNSISKIENLSTLKSLKNLELGGNKVHSIEPDSFEGLSNLEEIWLGKNSIPRLINLHPLKNLKILSIQSNKLKKIENLEELTNLEELYLSHNFITKIEGLEKNLKLTTLDVTSNKITSLENLNHLSNLTDIWASFNKIDQSFESLGENLSALSRLETIYLEGNPIQLENKTSYRRKLTMNLPPSLQKIDATYIRG"}}, "data": [{"variants_of": "B1", "settings": "with pp12_yeast GLC7, P32598", "values": [{"variant": "I54T;I193T", "effect of a mutation on the interaction": "decreasing interaction strength"}]}]}
